How the values were obtained:
human fibroblast = experiment: Collagen synthesis effects test; assay type: cell-based; conditions: summary statement of test results
Protocol: In order to measure the usefulness of the Tat-human Type-collagen DP prepared in Example 1 as a skin anti-aging agent, it was tested by comparing the preparation with ascorbic acid, which is known to be a material having an exceptional collagen synthesis effect.
In this test, a human fibroblast of the same number was cultured on a 24-well plate for 24 hours, and the sample as a concentration of 10^−4 to 10^−7 was applied thereto. After 2 hours, proline introduced tridium was applied thereto and a resulting mixture was cultured for 24 hours. Next, an amount of collagen newly-synthesized and newly-secreted from fibroblast was measured a cpm (count per minute) of proline introduced tridium using a medium, and an amount of csp (collagenous sensitive protein) was calculated. A comparative measurement of the collagen synthesis effect was then performed (David F. W. and Wilson Harvey, Analytical Biochemistry (1979); 96, 220 224, Atsushi Hatamochi, Masashi Ono, Hiroaki Ueki, and Masayoshi Namba., J. Invest Dermatol. (1991) 96, 473 477).

[1] = test system: wrinkles on the outer corners of the eyes (crow's-feet); experiment: Anti-aging effects, O/W emulsion applied to crow's-feet of human subjects; assay type: in vivo; conditions: 29 women in their thirties, 3 months, one time each day
Protocol: In order to examine anti-aging effects of the Tat-human Type-collagen DP prepared in Example 1, an O/W emulsion comprising the compound of Chemical Formula 1 of the present invention and a control were each applied to human subjects. In particular, the O/W emulsion and control were coated on wrinkles on the outer corners of the eyes (i.e., crow's-feet) of 29 women in their thirties. Application was performed for 3 months, one time each day. Visual observation of anti-aging effects, if any, was performed and ranked according to a scale of four possibilities—no improvement, little improvement, medium improvement, and significant improvement.

[2] = Transdermal absorption (penetration into skin cells) test, Franz cell; assay type: in vitro ADME; conditions: nude mouse back skin 1.7 cm^2, 24 hours, HPLC and LC mass
Protocol: Penetration of a compound, agent, etc. into skin cells is commonly referred to as transdermal absorption, and this will be the term used herein. The transdermal absorption test was conducted using the fusion peptide prepared in Example 1 (Reference: Lehman P A, Slattery J T, Franz T J. Percutaneous absorption of retinoids: Influence of vehicle, light exposure, and dose, J. Invest Dermatol., 91; 56–61. 1998).
Specifically, skin on the back of a female nude mouse 8 weeks of age was cut to a specific depth and to an area of 1.7 cm^2, and the fusion peptide was applied thereto. After 24 hours, the receptor solution and material absorbed in the skin in the back of the mouse were extracted with a transdermal absorption measuring instrument (Franz cell), and quantitatively analyzed using high performance liquid chromatography (HPLC) and liquid chromatography mass (LC mass) techniques. That is, these techniques were used to measure the amount of the compound of Chemical Formula 1 of the present invention that underwent transdermal absorption. […] Example 5: Allergy Test of a Tat-human Type-I collagen DP fusion peptide (LLNA)(SEQ ID NO: 10)

Balb/c mice = experiment: Allergy test (LLNA, murine local lymph node assay); assay type: in vivo, mouse; conditions: 0.5% and 1.0% solutions in ethanol, 50 μl to both ears for 3 days, [3H]-methylthymidine; versus control
Protocol: An experiment using ethanol as a carrier was selected for a safety test of the compound of Chemical Formula 1 when used as a cosmetic raw material [Reference: Kimber (1990): Identification of contact allergens using the murinelocal lymph node assay, J. Appl. Toxicol. 10(3); 173–180]. A control that uses cosmetic material for an anti-aging agent and the compound of Chemical Formula 1 were prepared in 0.5% and 1.0% solutions. 50 μl of the solution was applied to both ears of Balb/c mice for 3 days, and then the auricular lymph nodes were removed from the mice. The lymph nodes were pulverized to a monocell state, and radioisotope [3H]-methylthymidine was added thereto, after which a resulting material was cultured for 24 hours. Subsequently, amplification of cells (dpm, disintegrations per minute) was measured using a β-scintillation counter (Beckman LS 6000 TA, USA).

guinea pigs = experiment: Skin irritation patch test; assay type: in vivo, guinea pig; conditions: O/W emulsion, 48 hours closed patch
Protocol: In order to test skin irritation of the compound of Chemical Formula 1, a patch test using guinea pigs was conducted [Reference: Draize, J. H. (1959): Dermal toxicity. Assoc. Food and Drug Officials, US. Appraisal of the safety of chemicals in Food, Drugs, and Cosmetics., pp 46–59, Texas State Dept. of Health, Austin, Tex. Federal Register (1973): Method of testing primary irritant substances 38(187): pp 1500–1541]. The compound represented by Chemical Formula 1 was prepared in an O/W emulsion of various concentrations. Fur on the back of the guinea pigs where the sample was to be coated was removed, and the area was allowed to adapt to the surroundings for 24 hours in order to minimize skin irritation that may be caused by the removal of the fur.
Next, a sample coating region was established (1.5 cm×1.5 cm), a sample and gauze were applied thereto, and the coated region was sealed with a thin paper of solid material in order to prevent loss, after which the sealing material was held firmly in place with an elastic bandage. The guinea pigs were maintained in this state for 48 hours then all the applied materials were removed. At two different time periods of 2 hours and 24 hours after removal of the closed patch (50 hours and 72 hours after patch application), the degree of irritation was determined and indicated by an irritation index (P11: primary cutaneous irritation index) and by an irritation degree scale.

V79-4 cells = experiment: Cytotoxicity MTT test; assay type: cell-based, Chinese hamster
Protocol: In order to identify the safety of the compound of Chemical Formula 1 when used as a cosmetic raw material, V79–4 cells (Chinese hamster, continuous cell line of lung tissue fibroblast) were cultured and an MTT test was conducted to test cytotoxicity for the compound [Reference: Mossaman T. (1983). Rapid colorimetric assay for cellular growth & survival: application to proliferation & cytotoxicity assays. Journal of Immunological Methods 65, 55–63).

With “KKKKKKKKKKTKS (Tat-human Type-I collagen DP fusion peptide)” the “synthesis of collagen and hyaluronic acid” value (human fibroblast) was “superior synthesis of collagen and hyaluronic acid”, the “anti-aging effects on crow's-feet (visual observation)” value [1] was “exhibits anti-aging effects on crow's-feet” and the transdermal absorption capability [2] was “superior transdermal absorption capability”. The “possibility of allergy induction” value (Balb/c mice) was “lower possibility of allergy induction than the control”, the “Irritation Degree” value (guinea pigs; Concentration 0.01 %) was “Minute irritation” and the “Irritation Index (PII)” value (guinea pigs; Concentration 0.01 %) was 0.52. The “Irritation Degree” value (guinea pigs; Concentration 0.1 %) was “Minute irritation”, the “Irritation Index (PII)” value (guinea pigs; Concentration 0.1 %) was 0.53 and the “Irritation Degree” value (guinea pigs; Concentration 0.5 %) was “Minute irritation”. For the same sequence, the “Irritation Index (PII)” value (guinea pigs; Concentration 0.5 %) was 0.53, the “cytotoxicity (MTT)” value (V79-4 cells; concentration of 0.01 or less) was “negligent level of toxicity” and the “cytotoxicity (MTT)” value (V79-4 cells; concentration of 0.1 (%, w.v) or more) was “very weak toxicity”.

Source: patent publication US7094407B2, “Fusion peptide containing human type-1 collagen derived peptide, preparation thereof, and skin anti-aging cosmetic composition comprising the same” (LG Household & Health Care Ltd., priority 2002, dated 2006)
